These results are taken from patent US20230226096A1 (Orna Therapeutics, Inc., priority 2020, published 2023).

The data set deals with HEK293 cells. In kind it is cell-based, human. As to conditions: luminescence from secreted Gluc in supernatant 24 hours after transfection of HEK293 cells; circular RNA encoding Gluc with the named IRES (UTR truncated to 675 nt).

B1: Rafivirus LPXYC222841 (nucleic acid, listed as Rafivirus sp.)
DNA: GTGTCCGGGAAGCGACTCAAGCTTTTGACTGAGTCTCTACACCTTCATCCGTAACATCTTTAAGTTTATGTGCCTATGGACCTCTAGTGCACTGCCATCACCGGGGGTGTATTGGACTGGTTTTTCCACAATCCATTCATCCTGAGGAATTTTGGCTTTGTTACTAGGATGGTCCCACCACACGCTTATCTGTGCCTATTGTGTCAACCATGTTCTTAAGTAGTTGTGCCCGTGGGTGAGTAGATAACCACAACAATCCGATAAAGCATCTCGCAAGGATGTGAGTAATGGAGTGTATGTGCTACAGAGACCCACAACCTGAACCAAGAGAGACACAGTGAGGATTGTAAAGGGGGAACTCTTTGAAAGGGCATGTCCCGCAATTCCTACTGACTGACACCGGGGGTTGGTGTCGGTGGATTTTAGCAAATCCTGTTACTGGGTGATAGCCTTGTGCACTTCACTTGGTTCTTGTATAAGTGCTGTA
As to B1, the Expression turned out to be 2.22E+05.

B2: Bat sapelovirus (nucleic acid, listed as Sapelovirus sp.)
DNA: GACAGGTGTTTTGGAGGGCGGATGACGATATCTGGCTGGCCACCAGGGAATAACGGCAAATGTCTGATCATACGGTTCACAAGTCTACCGGCGATAGTGGTTCAACACCATGTGTAGCAGGGATTCTTGCGTATGTGAAGGCGACAGTGC
In turn, B2 registered an Expression of 8.05E+04.

B3: Bat Picornavirus 2 (nucleic acid)
DNA: GGGTTTTACGAAACCCGTATACACCAGACCTTTTCTCCCCTCCCCCTCCACCTACCTTTTCCCCCTCTTTGGACCGAAACAAGGACACGTAAGTGGAAACGCGATTTTATATGTGGTTGGCCACCACGGAATAACGGCAATTGTCTACATGTGGGAAGTGCAACCTCCCTAGCCGATAACCCCTGACCGGGTGTGTAGGATAGGAAAGGTGCCCACTGTGGGCGACAGGTTATGGTAGAGTGGATACCTAGCCAGGGGCAATGGGACTGCTTTGCATATCCCTAATGAAGTATTGAGATTTCTCTGCTCATTACCCGGTGATGGTTGTGTGGGGGGGGCCCCATACACTAGATCCATACTGCCTGATAGGGTCGCGGCTGGCCGACCATAACCTGTATAGTCAGTTGAATTCAGCCAAG
The molecule B3 had an Expression of 7.99E+07.

B4: Bat Iflavirus (nucleic acid, listed as Iflavirus sp.)
DNA: ACGAATCGGTATACGCTTCGGTACCTATTGTTGCAAGTTCGTTCCCTATTTTCGATTTGCCTGCCCGAATTTGACTCAAACAATTGTGACATACTATGTCTCTGTTTGAAAGCACTACACGAGTTTGCGCCCAGCATGTATGTTTTCAAGTCTTTTGTATAAGTCTGCCTCTATAGTGGTTTTCTTTGACCTTAAAGCCTTGTCAACCATCCTATATGCTGCATCGAGACTTGATGTCAATCTGCCTCTACTACGCAAATGTCTAGTAATTAGTTATAAGGTTTTACTATTTTCCCTCATTTCCAATTTTAGTTTGTAGTGTATGTGAGTATCATTCTTACTCCGACTGTTAAGAGAAACCAATTTATAGTCGTTAAATATGATAAATGGAATGAATGATGGTGTCATTTTAAAAACACTCTTCTCTATAGGCGTAAGCATTCTCGCTCTTAGAGTCGTAAAGAAGAAATGCCGTGTCTATCAGTATGTTATGCGATTTATTTTCTGCCACGCGCTTCTAGTGCAATCTAGTTGACATACAGACATTGCCTACCACTCGCGAGGGTCGACCGGTAGTGTAAGGAGTAAGTGATGATTTCCGCTTATTCTGTACCCTTTGCCTGGTGAGGACAGATCCTGACTAATTTTAAATATAAATGAACACTAGCTTCCAAG
On to B4, for which the Expression is listed as 9.76E+04.

B5: Ball python nidovirus (nucleic acid)
DNA: CCCCTTCACCCATAGGCACTAGGAGAACAGGATAACCCCTAACGGGGCATCCTGCCTGTGACCTTTCAGATTCGCTAGTTAGATATCTTCACAGACTCTGCTAGGCTTCTGACCCAGTCCGTTCCCAAAGTCCGTTACCGCCCGAGTAGCGCTTAGGCGCGAAAGGGACGGAAGTACCTCCAGTAAGCGAAAGCTGAAGTAAGGGAAATACGGCAAGACTAACTTGTTAGTCTTACAGTGTGGATAACCTGGTAGTTATCCCCGACAAGAGACCTGACTCGATGTGAAAACATCCAACTAGGTTGGCTTCAAACTAGCTACAGGCAGGATATCCCCCAACGGGGCCTCCAAGGAATCGAGAACCAACCCTCATTCCACGTCTGTAGTAAGCAAAAACAGGGGCGATCTTCACCGACACCTCTCACCACAGAGCACACCAACCTCTGTGAAGCCAATTTCCTCGTCCAAGGACAGGTTATTGAGGGTCAACTTTCTTCCGACCAGAAGAAGGGATTTCCTACCAAAAGAAAAACCAAATCCACCAACACCACAAGGTAAAACAACAACTTGTGAAGCCAATACTTAGTCAAAGACTAACTATTGAGGGTCAACTTTCTCTTCAATAGAGAAGGGATTTCCTGGTAAAACAAATAACAACAACTAACATCAGCAACT
modifications: Ball python nidovirus
In turn, B5 came in with an Expression of 8.25E+04.

B6: Rhimavirus A (nucleic acid)
DNA: CGAATTCCGGACATCTCCTTTCGGGGGCGAGCGTCACCGTGCCCCTCATGGAGGCAACTGTGCCTCTAATCGGTGACCCACTGAGAAAATTTTCTTTCTACGTGGCTAAACAATGCAACTTTATAATAACACAAATTTAATGCTTAATCTTAACACCAAAGATTTGAACATATGTTTGGAAAGTGGCACACTTCAAACATTGCATAGTTGCTAGGGGTGAAGTCCCTTTAAGGGGTTGCAGAGGATCTTTCCTCTTTATGAGCGGCTAGGAGTATCTTCTTGATATTATGTGGTCGTGCAACTCACTTCCCAGATGTATGACGGTGTACTAAGCGATTGGAACTAGTCATAACCTCTTTGAATTTTGGTATTGCGAGTCTAGCAGGGGGATATTTACCGCTAAAGGGTGACACACTCGTGAGGGTGGCCTTTGGTGTGTGTATATTTATTCCGCCCATCTTGCATGGGGTGCTAAAATTCTAATGCTGTGAAATAACCATTTTCTGAATACATTCTCTACATTTGGAGTCAAATATGAGGAATGCCACTCAGGTACCCTTGACATGATCTTGGATCTGAGAGTGGGCTAATTATCTAATTATTTGGCGACTTTCTAAAATCTTCTGTTTTTAGTGGTGACAATTTATGGTTATAAA
On to B6, for which the Expression is recorded as 8.42E+05.

B7: Bat Hp-betacoronavirus (nucleic acid)
DNA: TTAAGCTTCGGCTTGTTGCATAGGACCGGAAAGGTACTATCTACCCTAACTCTTGTAGTTAGACTCTCTAAACGAACTTTAAAACTGGTTGTGTCCTTCAGTAGTCTGTATGGCCATTGGAGGCACACCGGTAATTATCAAATACTAAGAAGATTCATAGTACATCCTTGTCTAGCTTTTGGTTGGCAGTGAGCCTACGGTTTCGTCCGTGTCGCTCACAATTATCCACACAGTAGGTTTCGTCCGCTGTGGTTGAGTTGCTAGTCCGTTGCTGTTTCGTCAGCCATCTACAACTCGACACC
modifications: Bat Hp-betacoronavirus
The molecule B7 registered an Expression of 8.47E+04.

B8: Basella alba endornavirus (nucleic acid)
DNA: GGAATATGGCTAATCGGCTTATTCTAATCAAACGCAAAAGACTTATGACACAGACCGGACCTGAACGAGGTGATAAAACACCTCGTTCAGGTTCAAAACGTAGAAGATTCATTCCTCCGATTAGAAATACAACTACGTCTAAGCACGATAGAGATGGTATCAAGATCGGTTTTAGACCACGAGAAAATCGGCAAATGAAAGTACAAGTTGGGTGGTTTAAATTACCAAGAACAGTAACATTCAAGAACAACGGCAACCCGTTTGTTACCTCATTTCGTAAATTGTTTAGAAGTAACAAAGATAAATTATTTAATGGTGGGAAGAACCTAAGTACAGTACCAGCCAGAAGTAGTGAAATGACAGAAATGTTTATGTTCATGTCCACGCTAGAGGGCCAATTGTCAATCCAAGATCGAGATCCAAAAATAATCAATAAGTCTATATACATGATAGAGGTA
B8 displayed an Expression of 7.65E+04.

B9: Bat Picornavirus 1 (nucleic acid)
DNA: GAAACCCGTATACACCGGACCTTTTCTCCCCTCCCTCTCCACTTACCTTTTTCCCCTCTTCGGCATGAAACAAGGATTATTCAAGTGGAAACGCGATTTAATATGCGGCTGGCCACCGCGGAATAACGGCAATTGTGTATCTGCTGGAAGCCAAGCCTGCCTAGCCGATAGCCCTTGACCGGGTGTGTAGGATAGCCCAGGAACCAGCAATACGCGACAGGTTATGGTAGAGTAGATACCTAGCCAGGGGCAATGGGACTGCATTGCATATCCCTAATGAACCATTGAGATTTCTCTGGTCATTACCCGGTGATGGTTACTAGAGGGGGGCCTCTAGTACTAGATCTATACTGCCTGATAGGGTCGCGGCTGGCCGACCATGACCTGTATAGTCAGTTGATTTGAGCAAT
B9 returned an Expression of 1.85E+07.

B10: Bat dicibavirus (nucleic acid)
DNA: GTATAGCACCGGAATGGTATTTTACTACTCCAAGTATACGTACTAGGAGTTAAACCCTGTAATTTACAGGGGATTTAGTGACTTTTATCCGTAAAAGTCGATTGGACGTTAATCGGTAACGAGGCCAAGTACCGTGAACCAATTTAAAAACGTATTTTCTCATGTGGTAGAACCAACTTGGAAATAGCATGGCATATAGGTTGTTTAGGG
B10 returned an Expression of 7.43E+04.

B11: Boone cardiovirus 1 (nucleic acid, listed as Cardiovirus sp.)
DNA: TACGATCGCTGTACATTCCACTACTGCCAATTAGCTCCCCCTTCCCGTTGCTCCCCTCTATAAGGAGAGCCTTCTCTTGCAAAGGTGAAGCCTTCACCCCCGGTCGAAGCCGCTTGGAATAAGACAGGGTTATTTTCTCCTCTCCTCGGCGCTTGCCTCTTCTAAGCTGAATAGGTTCTATCTATTCAGGCGGATGGTCTGGTCCGTTCCTTCTTGGACAGAGTGTGTATCTGGGTTTTCCGGATCTCGACCACACACTCACCAGAGCTCAGGAGTGATTAAGTCAAGGCCCGATCTGCGGCGAAAAGGAAATGAAGTATTTTGCAGCTGTAGCGACCTCTCAAGGCCAGCGGATTTCCCCACCTGGTGACAGGTGCCTCTGGGGCCAAAAGCCACGTGTTAATAGCACCCTTGAGAGCGGTGGTACCCCACCACCCTGCAAATTATGGATTTGACTTAGTAACTAAAAGATTGACTTGGCATACCTCAACCTGAGCGGCGGCTAAGGATGCCCTGAAGGTACCCGTGTTGAAATCGCTTCGGCGACCATGGATCTGATCAGGGGCCCTGCCTGGAGTGGTTCTATCCCACACAGCGTAGGGTTAAAAAACGTCTAACCGCCCCACAAAGACCCCGGCAGGGATGCCGGTTTCCTTTTTACCAATTCTTGACACT
B11: the Expression turned out to be 2.62E+06.
